This note sets out measurements from doi:10.1101/2022.08.17.504347 (bioRxiv, 2022).

Series [1] deals with chicken CENP-C^677-864 (C-terminus of chicken CENP-C including the Cupin domain) (chicken). Description: crystal structure.
Series [2] concerns the molecule itself. Description: native gel or EMSA.

The molecule “chicken CENP-C^677-864 (C-terminus of chicken CENP-C including the Cupin domain) (domain or fragment)” gave a stoichiometry N in series [1] of 2.

B1: human CENP-C fragment hCENP-C^760-943 (C-terminus of hCENP-C, wild type) (domain or fragment, UniProt Q03188-1 760-943, looked up)
chain: GRPSGGFVISGVLSPDTISSKRKAKENIGKVNKKSNKKRICLDNDERKTNLMVNLGIPLGDPLQPTRVKDPETREIILMDLVRPQDTYQFFVKHGELKVYKTLDTPFFSTGKLILGPQEEKGKQHVGQDILVFYVNFGDLLCTLHETPYILSTGDSFYVPSGNYYNIKNLRNEESVLLFTQIKR
For B1, in series [2], the binding result was “binds”.
